Data set [1] concerns Human colon adenocarcinoma (HT-29) cells. Kind of data set: In-vitro cytotoxicity in HT-29 cells. The format is cell-based. From the text:
FIGS. 24a and 24b are graphs illustrating the in-vitro cytotoxic effects of SP1-DOX complex. FIG. 24a—HT-29 cells cultured in 96 well microtiter plates were exposed to uncomplexed DOX (closed oval, magenta) or SP1-DOX complex (closed triangle, blue) prepared as described in FIGS. 9-15, at the indicated concentrations. FIG. 24b—HT-29 cells were exposed to uncomplexed SP1 (without DOX) (closed diamond, blue) or SP1-DOX complex (closed triangle, yellow) at indicated concentrations. Proportion of living cells was determined by MTT assay, and the IC50 was calculated.
HT-29 cells were prepared as in FIG. 24 above.
Human colon adenocarcinoma (HT-29) cells. The cells were grown in 50-ml flasks containing DMEM medium (Biological Industries, Bet Haemek), supplemented with 10% fetal calf serum, 1% glutamine and 1% Antibiotic-Antimicotic solution (Biolab, Israel). The cells were trypsinizated, and 2 ml medium containing 5×10^4 cells were plated in each well of a 6-wells plate. SP1, drugs or SP1-complexed with drugs was added at the indicated concentrations. The cells were incubated at 37° C. in a humidified atmosphere containing 5% CO2.After 48 hours the medium in the presence or absence of drugs was replaced in each well respectively, to maintain a constant supply of ingredients and drugs. After four days the medium was removed and the number of viable cells in the cultures was determined by spectroscopy.
The human colorectal adenocarcinoma cell line, HT-29, was used to evaluate the biological activity of the SP1-DOX complex, compared to that of the free drug and un-complexed SP1 protein. […] Thus, the SP1-DOX complex is at least as biologically active as free DOX.

Data set [2] in a line: Doxorubicin complex formation and release (ultrafiltration, HPLC, SDS PAGE fluorescence). The format is binding. The settings on record: reducing conditions (DTT or GSH). On the procedure: Pure wild type SP1 or Cys2 SP1 mutant (1.5 mg/ml in 20 mM Sodium Phosphate buffered, pH=6.8) were incubated overnight at room temp, with DOX 1 mg/ml in the presence of DTT (10 mM), with gentle rolling. Binding reaction was stopped by adding hydrogen peroxide (0.01%), followed by ultra filtration (using 30 kD cutoff filter) and extensive wash until follow-through become colorless. Optical density was measured at both 278 and 477 nm using nanodrop spectrophotometer. Note the dramatic effect of the reducing agent on drug binding by the Cys2 SP1, compared to the absence of effect on the wild type SP1.
FIG. 13 is a histogram illustrating the redox-dependent release of Doxorubicin by Cys2 SP1. Doxorubicin (DOX) was complexed within Cys2 SP1 as described in FIGS. 9-12 above. Release of the drug in the presence of 0, 2 and 20 mM GSH was measured by ultrafiltration and size exclusion HPLC analysis (detection at 228 and 475 nm);
FIG. 14 is a histogram illustrating the effect of oxidation on DOX complex formation by Cys2 SP1. Doxorubicin (DOX) was reacted with Cys2 SP1 and wild type SP1 as described in FIGS. 9-13 above. Oxidized protein indicates exposure to excess of H2O2 prior to treatment with GSH. DOX complex formation was measured by ultrafiltration and size exclusion HPLC analysis (detection at 228 and 475 nm). […] 1=the retentate; 2=the flow through; and 3=a DOX standard 20 μg/ml.
FIG. 17 is a photograph of a fluorescent PAGE analysis illustrating effective complex formation with DOX by Cys2 and SP1 fusion proteins. Recombinant wild type (lanes 1 and 2), Cys2 (lanes 3 and 4), and SP1 fusion proteins having additional N-terminal tumor specific peptide RGD (CRGD, SEQ ID NO:151; fusion protein is SEQ ID NO: 5)(lanes 5 and 6), or RGD in reverse order (RGDC, SEQ ID NO: 152; fusion protein is SEQ ID NO: 6)(lanes 7 and 8) were reacted with DOX to form complex as described in FIGS. 9-14 above, and then separated on SDS-PAGE with (lanes 2, 4, 6 and 8) or without (lanes 1, 3, 5 and 7) denaturation by boiling in LSB.
Ultrafiltration was used for the detection of complex formation with the water soluble ligands FA and DOX which have a distinctive absorption properties and can be determined by spectroscopic measurements. […] Several additional washing cycles remove all remaining free FA and DOX, and the ligand-SP1 complex remains in the retained fraction.
Size exclusion chromatography is a common method for separation of molecules of different sizes under mild conditions and was employed to test FA and DOX complex formation under mild conditions. SP1 is eluted from the column after 7 min and is detected at 278 nm only, and free FA is eluted from the column (TSK G3000 SWXL, Tosohaas) after 16 min and is detected at 490 nm. The SP1-FA and SP1-DOX complexes also eluted at the same time but is detected also at 490 and 475 nm, respectively. DOX/SP1 ratio is determine from the standard curve obtained in solution.
Reverse phase HPLC (RP-HPLC) analysis separates between free DOX, PXT, and SP1. Both compounds bind to the resin (C-18) and are eluted at different acetonitrile concentrations, and detected at both 278 and 225 nm (SP1), 225 nm (PTX) and 477 nm (DOX).
Pyrogen free Cys2 SP1 variant (SEQ ID NO:3) in 20 mM (Na Phosphate buffer pH-6.7) final 2 mg/ml was diluted with DOX solution (Teva, Israel) 1:2 dilution final 1 mg/ml. Where indicated, GSH was added, and the solution is mixed overnight. Where indicated (oxidized), H2O2 is added to 0.1%, buffer added to 3× volume, and the solution is sonicated (3×22 sec. 1:1 pulse/pause at 3% amplitude 0.5 min. pause, using a Vibra-Cell 750 W sonicator).

The nature of data set [3]: Heat stability (no precipitation after heat treatment). The settings on record: 10 min at 100° C. or 30 min at 85° C.
The nature of data set [4]: Oligomeric complex formation by SDS PAGE (unboiled samples). The note with it: for oligomeric complex formation, stability and resistance: boiling and protease stability; for Complex Formation: SDS PAGE, samples not boiled in the application buffer.
Protocol: SP1 (20 μg) was prepared in SDS sample buffer at different SP1-monomer: SDS molar ratios and boiled (or not) (5 mM) prior to SDS-PAGE analysis. Heat stability of SP1 oligomer (10 μg) was tested in the same buffer at SP1-monomer: SDS=1:1733 and heated for 1 to 10 mM at different temperatures.
Purified 6HSP1 and ΔNSP1 were first denatured to the monomeric forms by boiling the proteins in SDS sample buffer. The denatured proteins were then separated in preparative SDS-PAGE, and visualized by Coomassie blue staining. The monomeric forms of two recombinant protein bands were excised. Gel slices that carried monomeric form of 6HSP1 (SEQ ID NO:7) and ΔNSP1 (SEQ ID NO:2) were mixed at 1:1 ratio (v/v). In order to enhance the surface/volume ratio, the gel slices were pulverized using a pestle and mortar in the presence of liquid nitrogen. […] The hetero-oligomeric complex was isolated by subjecting the eluated protein to Ni-NTA Agarose beads and the bound proteins were eluted by 400 mM imidazole using a standard procedure (Sigma protocol for P 6611). […] The composition of hetero-oligomeric SP1 was determined by SDS-PAGE and visualized by silver staining.

Values after ≈ are worked out from the molar mass of the structure shown.

Regarding `CC(=O)O[C@H]1C(=O)[C@@]2(C)[C@H]([C@H](OC(=O)c3ccccc3)[C@]3(O)C[C@H](OC(=O)[C@H](O)[C@@H](NC(=O)c4ccccc4)c4ccccc4)C(C)=C1C3(C)C)[C@]1(OC(C)=O)CO[C@@H]1C[C@@H]2O` [PTX, paclitaxel], the concentration for half-maximal inhibition (IC50) in data set [1] (Homo sapiens, HT-29 cells, dose inhibiting 50% of cell growth, read-out: IC50) is approximately 0.01 µg/mL (≈ 0.0117 µM). For the same molecule, the “biological activity after storage in aqueous solution” value in data set [1] (at least 3 weeks storage in aqueous solution) is “becomes inactive”.

B1: CRGD2: SP1 fusion protein with N-terminal tumor specific peptide CRGD, SEQ ID NO:5 (protein)
chain: MCRGDATRTPKLVKHTLLTRFKDEITREQIDNYINDYTNLLDLIPSMKSFNWGTDLGMESAELNRGYTHAFESTFESKSGLQEYLDSAALAAFAEGFLPTLSQRLVIDYFLY
modifications: Sp1 mutant variant Cys, Arg, Gly and Asp inserted into position 2
As to B1, in data set [2], the DOX complex formation entry was “effective binding”. Besides, the Heat stability entry in data set [3] is reported as “+”. For the same molecule, the “oligomeric complex formation, stability and resistance” value (“oligomeric complex formation” for short) in data set [4] is “formed a boiling stable and protease resistant dodecamer”; in data set [4] (listed as CRGD SP1) it was “formed homo- and hetero-oligomeric complexes”.

B2: RGDC2: SP1 fusion protein with N-terminal peptide RGDC, SEQ ID NO:6 (protein)
chain: MRGDCATRTPKLVKHTLLTRFKDEITREQIDNYINDYTNLLDLIPSMKSFNWGTDLGMESAELNRGYTHAFESTFESKSGLQEYLDSAALAAFAEGFLPTLSQRLVIDYFLY
modifications: Sp1 mutant variant Arg, Gly, Asp and Cys inserted into position 2
As to B2, the DOX complex formation result in data set [2] is given as “effective binding”. Also, in data set [3], the Heat stability result was “+”. Further, the “oligomeric complex formation” value in data set [4] is “formed a boiling stable and protease resistant dodecamer”; in data set [4] (listed as RGDC SP1), “formed homo- and hetero-oligomeric complexes”.

B3: Cys2 K18R Gly19: Insertion of Cys residue in position 2 and of glycine residue in position 19, K18R (Cys2loop1RGd), SEQ ID NO:11 (protein)
chain: MCATRTPKLVKHTLLTRFRGDEITREQIDNYINDYTNLLDLIPSMKSFNWGTDLGMESAELNRGYTHAFESTFESKSGLQEYLDSAALAAFAEGFLPTLSQRLVIDYFLY
modifications: Sp1 mutant variant Cys inserted into position 2, K18R mutated and a Gly inserted into position 19
As for B3, the Heat stability entry in data set [3] is “+”. Further, in data set [4], the “oligomeric complex formation” value is “formed a boiling stable and protease resistant dodecamer”.

B4: Δ2-6 E72C: SP1 Loop 4 modification Δ2-6 E72C, SEQ ID NO:20 (protein)
chain: MKLVKHTLLTRFKDEITREQIDNYINDYTNLLDLIPSMKSFNWGTDLGMESAELNRGYTHAFESTFCSKSGLQEYLDSAALAAFAEGFLPTLSQRLVIDYFLY
modifications: Sp1 mutant variant amino acids 2-6 deleted and E72C mutated
B4: in data set [3], the Heat stability result is given as “+”. Also, in data set [4], the “Complex Formation” value is listed as 10.

B5: 42-6 S73C: SP1 Loop 4 modification, printed 42-6 S73C, SEQ ID NO:21 (protein)
chain: MKLVKHTLLTRFKDEITREQIDNYINDYTNLLDLIPSMKSFNWGTDLGMESAELNRGYTHAFESTFECKSGLQEYLDSAALAAFAEGFLPTLSQRLVIDYFLY
modifications: Sp1 mutant variant amino acids 2-6 deleted and S73C mutated
As to B5, in data set [3], the Heat stability result is recorded as “+”. For the same molecule, in data set [4], the “Complex Formation” value is given as 11.

The IC50 is the point on the concentration scale where inhibition reaches its midpoint.

These data come from patent US20150273076A1, “SP1 POLYPEPTIDES, MODIFIED SP1 POLYPEPTIDES AND USES THEREOF” (Fulcrum SP Ltd., priority 2006, published 2015).
